Measured values reported in publication PMC11109196 (Nature Communications, 2024).

Legend:
AD8 gp120 = target: T1, AD8 gp120 (HIV-1 subtype B, AD8, UniProt O40222, strain); test: flow cytometry on cells; blocking format: HmAb64 added to biotinylated gp120 in the staining of primary human CD4+ T cells; loss of gp120 staining read out (2, 4, 8 ug HmAb64 with 2 ug ADA gp120 in panel b); conditions: both partners purified
T1 construct: also called AD8 (B)

CM244 gp120 = target: T2, CM244 gp120 (HIV-1 isolate CM244 (CRF01_AE; printed …, UniProt Q4QX31, strain); test: as above; conditions: both partners purified
T2 construct: also called CM244 (AE); CM224

SF162 gp120 = target: T3, SF162 gp120 (HIV-1 (SF162), UniProt P19550); test: as above; conditions: both partners purified
T3 construct: also called SF162 (B)

MW959 gp120 = target: T4, MW959 gp120 (HIV-1 subtype C, 93MW959 (isolate 959 …, strain)); test: as above; conditions: both partners purified
T4 construct: also called MW959 (C)

A244 gp120 = A244 gp120 (HIV-1 isolate A244); test: SPR; Biacore 3000, CM4 or CM5 chip; gp120 or BG505-SOSIP immobilised by amine coupling to about 750 RU; HBS pH 7.4, 3 mM EDTA, 0.005% Tween-20, 0.05% carboxymethyl-dextran; 25 ul/min, 25 C; conditions: both partners purified
[1] = target: T5, HIV-1 SF162 Env on infected human CD4+ T cells (HIV-1 isolate SF162, UniProt P19550, strain); test: flow cytometry on cells; primary human CD4+ T cells infected with HIV SF162 for 3 days, stained with HmAb64 (2 ug), goat anti-human-PE; conditions: one partner purified
T5 construct: also called HIV-1 SF162 infected CD4+ T cells; source: primary human CD4+ T cells infected with HIV SF162, on the cell surface

[2] = target: gp120 Czm (clade C, 96ZM652) (HIV-1 subtype C, named 96ZM652; entry …, strain); test: ELISA; HmAb64 on gp120, gp120-Core or their D368R mutant protein, as previously described; conditions: both partners purified
[3] = target: T6, wild-type gp120 Env protein, HIV-1 isolate YU2 (HIV-1 isolate YU2, UniProt P35961); test: as above; conditions: both partners purified
T6 construct: also called YU2 gp120

[4] = target: gp120 A2 (clade A, 92UG037.8) (HIV-1 isolate 92UG037.8 (clade A), UniProt Q70200, strain); test: as above; conditions: both partners purified
[5] = target: T7, wild-type gp120 Env protein, HIV-1 isolate JR-FL (HIV-1 isolate JR-FL, UniProt Q75760, strain); test: as above; conditions: both partners purified
T7 construct: also called JR-FL gp120

[6] = target: T8, biotinylated gp120 of HIV-1 CM244 (HIV-1 isolate CM244 (CRF01_AE; printed …, UniProt Q4QX31, strain); test: flow cytometry on cells; HmAb64 added to biotinylated gp120 and read by the loss of gp120 staining of primary CD4+ T cells; conditions: both partners purified
T8 construct: also called CM224 (as printed in the methods)

[7] = target: biotinylated gp120 of HIV-1 SF162 (HIV-1 isolate SF162, UniProt P19550, strain); test: as above; conditions: both partners purified

Measured: binding result

B1: HmAb64 (antibody, V domains shown)
VH: QVQLVQSGAEVKKPGASVKVSCKASGYTFTSYDITWVRQAPGQGLEWMGWISAYNGDTNYAQRLQGRVTMTTDTSTSTAYMELRSLRSDDTAVYYCARAKHTVLVTAMRWFDPWGQGTLVTVSS
VL: DIQMTQSPSSLSASVGDRVTITCRASQSISNYLNWYQQKPGKAPKLLISATSSLQSGVPSRFSGSGSGTDFTLTISSLQPDDFATYYCQQSYSTPWTFGQGTKLEIK
notes: also called HmAb64 mAb; source: Freestyle 293F cells, transfected, purified (Protein A HP columns)
binds: AD8 gp120 | CM244 gp120 | SF162 gp120 | MW959 gp120

B2: HmAb64 (antibody, V domains shown)
VH: B1 VH
VL: B1 VL
notes: also called human IgG (HmAb64); clone #64; source: Freestyle 293F cells, transfected (mAb64-HC/pJW4303 and mAb64-KC/pJW4303), purified from supernatant (Protein A)
binds: A244 gp120 | [1] | [2] | [3] | [4] | [5] | [6] | [7]
